Positions count from the first letter of the chain named. Values joined by “and” are separate entries in the source; they are usually repeats but may differ in a detail not shown here. Equal values may be shown once. Each block holds one binder with its values, some of them ahead of it.
What was measured:
human LIV-1 [1] = molecular target: T1, human LIV-1 (UniProt Q13433 29-755); assay: saturation binding, flow cytometry on MCF7 cells; AF-labeled
T1 chain: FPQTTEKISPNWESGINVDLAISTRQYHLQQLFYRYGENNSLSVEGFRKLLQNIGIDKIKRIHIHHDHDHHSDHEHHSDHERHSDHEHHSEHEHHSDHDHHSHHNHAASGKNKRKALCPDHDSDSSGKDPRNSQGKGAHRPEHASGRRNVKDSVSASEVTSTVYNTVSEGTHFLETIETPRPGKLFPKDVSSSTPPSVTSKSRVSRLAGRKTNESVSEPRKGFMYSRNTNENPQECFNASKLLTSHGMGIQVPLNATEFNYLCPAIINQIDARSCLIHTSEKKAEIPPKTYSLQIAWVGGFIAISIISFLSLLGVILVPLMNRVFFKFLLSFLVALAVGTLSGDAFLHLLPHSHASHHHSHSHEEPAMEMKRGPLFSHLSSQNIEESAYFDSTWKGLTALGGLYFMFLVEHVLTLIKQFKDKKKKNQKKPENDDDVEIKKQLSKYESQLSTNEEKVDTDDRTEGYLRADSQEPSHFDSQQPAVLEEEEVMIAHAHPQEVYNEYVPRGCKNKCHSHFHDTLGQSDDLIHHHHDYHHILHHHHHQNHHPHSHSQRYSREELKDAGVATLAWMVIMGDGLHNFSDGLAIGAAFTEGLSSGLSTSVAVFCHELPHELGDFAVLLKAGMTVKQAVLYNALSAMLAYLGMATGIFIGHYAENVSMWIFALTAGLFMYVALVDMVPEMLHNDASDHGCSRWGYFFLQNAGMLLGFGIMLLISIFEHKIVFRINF

human LIV-1 [2] = molecular target: T1, human LIV-1; assay: competition binding on CHO hLIV1 cells
human LIV-1 [3] = molecular target: T2, human LIV-1 (human, UniProt Q13433 29-755); assay: saturation binding of AF647-labelled antibody, flow cytometry, 293F (hLIV-1) cells
T2 construct: also called hLIV-1; Q13433
T2 sequence: T1 chain

human LIV-1 [4] = molecular target: T2, human LIV-1; assay: saturation binding, flow cytometry, comparison of the cell lines of Table 1
Procedure: (§1) 1×10⁵ antigen expressing cells (either MCF7 cells (ATCC) expressing human LIV-1, a transfected CHO cell line expressing human LIV-1 or a transfected CHO cell line expressing cyno LIV-1) were aliquoted per well of a 96-well v-bottom plates. […] Cells were pelleted and washed 3× with PBS/BSA. The cells were then pelleted and resuspended in 125 μL of PBS/BSA. Fluorescence was analyzed by flow cytometry, using percent of saturated fluorescent signal to determine percent bound and to subsequently calculate apparent Kd.

human LIV-1 [5] = molecular target: T2, human LIV-1; assay: saturation binding, flow cytometry, MCF7 cells
Procedure: as §1

human LIV-1 [6] = molecular target: T2, human LIV-1; assay: saturation binding of AF647-labelled antibody, flow cytometry, CHO (hLIV-1) cells
Procedure: as §1

human LIV-1 [7] = molecular target: T2, human LIV-1; assay: saturation binding of AF647-labelled antibody, flow cytometry, MCF-7 (ATCC) cells, endogenous hLIV-1
Procedure: as §1

cynomolgus monkey LIV-1 [8] = molecular target: T3, cynomolgus monkey LIV-1 (cynomolgus monkey, UniProt Q5R9M9 28-743 (Pongo abelii entry)); assay: saturation binding of AF647-labelled antibody, flow cytometry, CHO (cyLIV-1) cells
T3 construct: Recombinant on transfected CHO cells; also called cyno LIV-1; cyLIV-1
T3 chain: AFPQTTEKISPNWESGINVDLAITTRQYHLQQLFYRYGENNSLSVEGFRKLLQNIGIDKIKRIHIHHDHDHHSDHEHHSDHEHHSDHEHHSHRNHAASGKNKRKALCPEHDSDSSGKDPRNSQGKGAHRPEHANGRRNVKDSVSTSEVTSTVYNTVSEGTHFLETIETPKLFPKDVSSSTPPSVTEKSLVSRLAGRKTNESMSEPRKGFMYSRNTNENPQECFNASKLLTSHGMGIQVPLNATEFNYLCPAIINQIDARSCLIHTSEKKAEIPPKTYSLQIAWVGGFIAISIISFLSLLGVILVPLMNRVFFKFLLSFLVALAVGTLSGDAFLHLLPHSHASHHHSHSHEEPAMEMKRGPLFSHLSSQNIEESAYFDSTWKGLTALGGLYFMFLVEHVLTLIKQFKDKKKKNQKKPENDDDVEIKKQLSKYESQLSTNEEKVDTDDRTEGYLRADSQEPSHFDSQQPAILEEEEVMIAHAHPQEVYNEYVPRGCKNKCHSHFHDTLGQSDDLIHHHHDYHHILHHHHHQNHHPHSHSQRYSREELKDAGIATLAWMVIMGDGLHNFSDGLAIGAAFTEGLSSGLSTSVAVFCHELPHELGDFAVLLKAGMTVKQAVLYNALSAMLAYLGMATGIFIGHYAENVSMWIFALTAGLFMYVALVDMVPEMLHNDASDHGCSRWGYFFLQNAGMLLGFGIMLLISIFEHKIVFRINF
Procedure: as §1

human LIV-1 [9] = molecular target: T2, human LIV-1; assay: saturation binding of AF647-labelled antibody, flow cytometry, CHO hLIV-1 cells
Procedure: as §1, with “cells” for “cells (ATCC)”, “LIV-1, 293F cells,” for “LIV-1,”, “cytometery,” for “cytometry,”
(§2) The KD for the murine Liv1 of BR2-22a (Table 5) was determined for human LIV-1 expressed as an endogenous protein in a human breast cancer cell line, in 293F cells or as a recombinant protein in a CHO cell line. The KD for BR2-22a was also determined for cyno LIV-1 expressed as a recombinant protein in a CHO cell line.

human LIV-1 [10] = molecular target: T2, human LIV-1; assay: saturation binding of AF647-labelled antibody, flow cytometry, 293F (hLIV-1) cells; remark: listed apart in the source
Procedure: as §1, with “cells” for “cells (ATCC)”, “LIV-1, 293F cells,” for “LIV-1,”, “cytometery,” for “cytometry,”
as §2

human LIV-1 [11] = molecular target: T1, human LIV-1; assay: saturation binding on CHO cells; apparent Kd
human LIV-1 [12] = molecular target: T1, human LIV-1; assay: competition binding
human LIV-1 [13] = molecular target: T2, human LIV-1; assay: saturation binding of AF647-labelled antibody, flow cytometry, MCF7 (ATCC) cells, endogenous hLIV-1
Procedure: as §1, with “cells” for “cells (ATCC)”, “LIV-1, 293F cells,” for “LIV-1,”, “cytometery,” for “cytometry,”
as §2

cynomolgus monkey LIV-1 [14] = molecular target: T3, cynomolgus monkey LIV-1; assay: saturation binding of AF647-labelled antibody, flow cytometry, CHO cyLIV-1 cells
Procedure: as §1, with “cells” for “cells (ATCC)”, “LIV-1, 293F cells,” for “LIV-1,”, “cytometery,” for “cytometry,”
as §2

human LIV-1 [15] = molecular target: T2, human LIV-1; assay: average of several saturation binding curves, flow cytometry, MCF7 cells
human LIV-1 [16] = molecular target: T2, human LIV-1; assay: comparison of the EC50s of Table 3, CHO cells expressing human LIV-1
Procedure: (§3) 1×10⁵ CHO cells expressing recombinant human LIV-1 in PBS/BSA were aliquoted into each well of a 96-well v-bottom plates on ice. […] Cells were pelleted and washed 3 times with PBS/BSA. The cells were pelleted and resuspended in 125 μL of PBS/BSA. Fluorescence was analyzed by flow cytometry, using percent of saturated fluorescent signal to determine percent labeled murine LIV-1 mAb bound and to subsequently extrapolate the EC50 by fitting the data to a sigmoidal dose-response curve with variable slope.

cynomolgus monkey LIV-1 [17] = molecular target: T3, cynomolgus monkey LIV-1; assay: EC50 determination, CHO cells expressing recombinant cyno LIV-1
Procedure: as §3, with “recombinant cyno” for “recombinant human”, “in PBS” for “in PBS/BSA”, “aliquoted in” for “aliquoted into”, “with PBS.” for “with PBS/BSA.”

human LIV-1 [18] = molecular target: T2, human LIV-1; assay: saturation binding, CHO cells expressing human or cyno LIV-1 (FIG. 22)
human LIV-1 [19] = molecular target: T2, human LIV-1; assay: competition flow cytometry, CHO cells expressing human LIV-1, vs 5 nM AF647-labelled BR2-14a
Procedure: as §3

cynomolgus monkey LIV-1 [20] = molecular target: T4, cynomolgus monkey LIV-1; assay: saturation binding on CHO cells; apparent Kd
T4 chain: T3 chain

human LIV-1 [21] = molecular target: T2, human LIV-1; assay: competition flow cytometry, CHO cells expressing recombinant LIV-1, vs 5 nM AF647-labelled BR2-22a
Procedure: 1×10⁵ CHO cells expressing recombinant LIV-1 in PBS were aliquoted into each well of a 96-well v-bottom plates on ice. […] Cells were pelleted and washed 3 times with PBS. The cells were then pelleted and resuspended in 125 μL of PBS/BSA. Fluorescence was analyzed by flow cytometery, using percent of saturated fluorescent signal to determine percent labeled humanized BR2-22a antibody bound and to subsequently extrapolate the EC50 by fitting the data to a sigmoidal dose-response curve with variable slope.
All permutations of these five heavy chains and six light chains were then tested in a competition assay compared with BR2-22a (see FIG. 17).

human LIV-1 [22] = molecular target: T2, human LIV-1; assay: saturation binding, CHO cells expressing human LIV-1 (FIG. 22)
cynomolgus monkey LIV-1 [23] = molecular target: T3, cynomolgus monkey LIV-1; assay: saturation binding, CHO cells expressing cyno LIV-1 (FIG. 22)

- Kd (human LIV-1 [1]): 0.8 µg/mL and 5.8 nM
- EC50 (human LIV-1 [2]): 3.42 µg/mL
- Kd (human LIV-1 [3]): 2.7 nM
- fold lower dissociation constant for non-recombinant LIV-1 of a human cell line than for recombinant LIV-1 (human LIV-1 [4]): ~5 fold
- Kd (human LIV-1 [5]): 2.9 nM
- Kd (human LIV-1 [6]): 12.5 nM
- Kd (human LIV-1 [7]): 2.4 nM
- Kd (cynomolgus monkey LIV-1 [8]): 14 nM
B1: murine LIV-1 monoclonal antibody BR2-14a (antibody, V domains shown)
VH: QVQLQQSGAELVRSGASVKLSCTASGFNIEDYYMHWVKQRPKQGLEWIGWIDPENGDTEYAPTFQGKATMTADTSSNTAYLQLSSLTSEDTAVYYCNVHDAHYGTWFAYWGQGTLVTVSA
VL: DVLMTQTPLSLPVSLGDQASISCRSSQSIIRNDGNTYLEWYLQKPGQSPKLLIYRVSNRFSGVPDRFSGSGSGTDFTLKISRVEAEDLGVYYCFQGSHVPYTFGGGTKLEIKR
notes: Mouse monoclonal from hybridoma ATCC PTA-5705A; also called parental murine mAb; murine LIV-1 mAb

- Kd (human LIV-1 [9]): 1.5 nM
- Kd (human LIV-1 [10]): 0.5 nM
- Kd (human LIV-1 [11]): 1.2 nM
- EC50 (human LIV-1 [12]): 0.3 µg/mL
- Kd (human LIV-1 [13]): 1.1 nM
- Kd (cynomolgus monkey LIV-1 [14]): 4.2 nM
B2: mouse monoclonal antibody BR2-22a (antibody, mouse IgG1, V domains shown)
VH: B1 VH with Q1E, F27L, K42E, A61G, T63K, E89G, N97T, D100N
VL: DVLMTQTPLSLPVSLGDQASISCRSSQSLLHSSGNTYLEWYLQRPGQSPKPLIYKISTRFSGVPDRFSGSGSGTDFTLKISRVEAEDLGLYYCFQGSHVPYTFGGGTKLEIKR
notes: also called mAb2; parental BR2-22a

- Kd (human LIV-1 [15]): 1.5 nM
- Kd (human LIV-1 [1]): 0.4 µg/mL and 2.9 nM
- EC50 (human LIV-1 [2]): 0.642 µg/mL
- fold better binding than the next humanized antibody HBLF (human LIV-1 [16]): ≥ 2 fold
- binding result (cynomolgus monkey LIV-1 [17]): binds
- fold affinity for human LIV-1 relative to cynomolgus LIV-1 (human LIV-1 [18]): 2 fold
- EC50 (human LIV-1 [19]): 0.3 µg/mL
- Kd (human LIV-1 [11]): 4.3 nM
- Kd (cynomolgus monkey LIV-1 [20]): 2.1 nM
B3: humanized BR2-14a antibody HBLB (hLIV14) (antibody, human IgG1, V domains shown)
VH: QVQLVQSGAEVKKPGASVKVSCKASGYTIEDYYMHWVRQAPGQGLEWMGWIDPENGDTEYAPTFQGRVTMTRDTSINTAYMELSRLRSDDTAVYYCARHDAHYGTWFAYWGQGTLVTVSS
VL: DVVMTQSPLSLPVTLGQPASISCRSSQSIIRNDGNTYLEWYQQRPGQSPRRLIYRVSNRFSGVPDRFSGSGSGTDFTLKISRVEAEDVGVYYCFQGSHVPYTFGGGTKVEIKR
notes: also called hLIV-14 HBLB WT; LIV-1 mAb HBLB

- EC50 (human LIV-1 [21]): 0.5 µg/mL
- Kd (human LIV-1 [11]): 1.2 nM
- Kd (cynomolgus monkey LIV-1 [20]): 1.3 nM
- fold higher affinity (inverse of dissociation constant) than hLIV14 (human LIV-1 [22]): ~4 fold
- binding result (cynomolgus monkey LIV-1 [23]): binds
B4: humanized BR2-22a antibody HGLG (hLIV22) (antibody, V domains shown)
VH: B3 VH with Y27L, A61G, T63K, R98V, D100N
VL: B3 VL with I29L, I30L, R31H, N32S, D33S, R51P, R55K, V56I, N58T
notes: Only variable regions tied to the tested antibody; also called humanized LIV22 antibody; hLIV-22 HG + hLIV-22 LG
